Data set [1] addresses T1, Dda 1993 K177F K177F (Enterobacteria phage T4) (UniProt P32270).
T1 sequence: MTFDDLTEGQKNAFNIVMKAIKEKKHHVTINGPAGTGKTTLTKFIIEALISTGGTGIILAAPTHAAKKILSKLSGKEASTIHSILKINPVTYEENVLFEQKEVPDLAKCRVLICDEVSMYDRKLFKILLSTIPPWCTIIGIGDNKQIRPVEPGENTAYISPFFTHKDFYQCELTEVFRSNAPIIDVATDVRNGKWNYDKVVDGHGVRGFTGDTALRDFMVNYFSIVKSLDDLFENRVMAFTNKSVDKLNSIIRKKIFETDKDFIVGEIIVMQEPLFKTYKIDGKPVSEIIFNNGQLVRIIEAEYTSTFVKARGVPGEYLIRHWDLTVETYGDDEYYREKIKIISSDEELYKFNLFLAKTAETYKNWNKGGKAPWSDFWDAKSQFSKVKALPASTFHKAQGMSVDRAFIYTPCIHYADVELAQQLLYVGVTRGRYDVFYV
The note with it: nanopore translocation; background mutations not given.

The target of data set [2] is T2, Dda 1993 K177W K177W (Enterobacteria phage T4) (UniProt P32270).
T2 sequence: T1 sequence with F177W
The note with it: nanopore translocation; background mutations not given.

The target in data set [3] is T3, Dda 1993 K177Y K177Y (Enterobacteria phage T4) (UniProt P32270).
T3 sequence: T1 sequence with F177Y
The note with it: nanopore translocation; background mutations not given.

In data set [4] the target is T4, Dda 1993 351I 351I (Enterobacteria phage T4) (UniProt P32270).
T4 sequence: T1 sequence with F177K, K351I
The note with it: nanopore translocation, FLO-MIN112; background mutations not given.

Data set [5] addresses T5, Dda 1993 361I 361I (Enterobacteria phage T4) (UniProt P32270).
T5 sequence: T1 sequence with F177K, E361I
Conditions: nanopore translocation, FLO-MIN112; background mutations not given.

The target in data set [6] is T6, Dda 1993 K358I K358I (Enterobacteria phage T4) (UniProt P32270).
T6 sequence: T1 sequence with F177K, K358I
The note with it: nanopore translocation, FLO-MIN112; background mutations not given.

Changes are numbered by the printed parent chain.

Take “barcoded 3.6 kb DNA analyte ligated to sequencing Y adaptor”: the activity (bps speed delta vs control) in data set [1] is -33.4; in data set [2] it was -23.4; in data set [3], -43.9; in data set [4], -9.76; in data set [5], 21.6; in data set [6], -5.51.

These data come from patent US20250382602.
